Results from PMC8338941, “Puf6 primes 60S pre-ribosome nuclear export at low temperature”.

How the values were obtained:
Puf6-PUM [1] = molecular target: T1, Puf6-PUM (Saccharomyces cerevisiae, UniProt Q04373 161-656); test: fluorescence anisotropy; 27 C; buffer promoting tertiary contact; Anisotropy: 2.5 nM Cy5-RNA, 0.16 nM-20 uM protein, 27 C (stated for H68), buffer composition not in the material; FRET: 20 mM HEPES pH 7.4, 100 mM K+ (116 mM KCl in the supplement), 0-100 mM Mg2+; details: protein: recombinant; (pET47-Puf6 (161-656)); label: Cy5 (sCy5); hairpin with GAAA tetraloop
T1 sequence (Q04373 161-656): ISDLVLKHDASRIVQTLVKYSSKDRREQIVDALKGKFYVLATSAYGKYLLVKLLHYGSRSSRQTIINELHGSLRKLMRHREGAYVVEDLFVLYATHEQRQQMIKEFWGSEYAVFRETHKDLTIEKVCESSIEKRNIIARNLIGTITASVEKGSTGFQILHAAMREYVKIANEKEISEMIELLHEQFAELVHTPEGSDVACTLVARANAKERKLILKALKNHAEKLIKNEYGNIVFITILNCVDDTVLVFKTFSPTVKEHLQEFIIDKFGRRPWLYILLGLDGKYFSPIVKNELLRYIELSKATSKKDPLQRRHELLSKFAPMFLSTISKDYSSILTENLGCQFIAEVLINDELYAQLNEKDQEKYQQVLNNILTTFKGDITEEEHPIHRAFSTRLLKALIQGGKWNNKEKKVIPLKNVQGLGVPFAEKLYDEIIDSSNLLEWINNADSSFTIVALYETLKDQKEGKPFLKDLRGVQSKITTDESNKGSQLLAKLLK

Puf6-PUM [2] = molecular target: T1, Puf6-PUM; test: fluorescence anisotropy; buffer promoting tertiary contact; Anisotropy: 2.5 nM Cy5-RNA, 0.16 nM-20 uM protein, 27 C (stated for H68), buffer composition not in the material; FRET: 20 mM HEPES pH 7.4, 100 mM K+ (116 mM KCl in the supplement), 0-100 mM Mg2+; details: protein: recombinant; (pET47-Puf6 (161-656)); label: Cy5 (sCy5; sCy3 in the FRET construct); three hairpins, H22-H88 kissing loop, GAAA tetraloop docking

Binder | Kd (Puf6-PUM [1]) | Kd (Puf6-PUM [2])
UGAAGAAAUUCA (structured_RNA) [H68 RNA] | ~10 µM | 
KL-TLGAAA (H68-H88-H22 RNA), Cy5 (structured_RNA) RNA: UGAAGAAAUUCAAAAAAAAAGCUCGGAAUUUGAGCAAAAAAAAAAAACGGUGGUAAAUUCCAUCG |  | ~0.125 µM
